From the supplement of paper PMC10567573 come the findings set out here.

B1: LRRC45 (parent)
chain: DLSAANEKNLLLQNQVDELERKFR
B2: MLL5 (parent)
chain: EQIAERKRKMVSWEASSLGLVTAA
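Further: lentivirally expressed fusions sorted by FACS into six bins by GFP to DsRed ratio, PSI derived from sequencing read proportions per bin multiplied by bin number.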

Variants of B1 are the subject of the first data set. The data set can be described thus: protein stability index of a GFP-peptide fusion (GPS, HEK-293T) (PSI 1-6); higher = more stable. The note with it: c terminus: a fixed tail appended.
As to DLSAANEKNLLLQNQVDELEEKFR, the protein stability index amounted to 4.56. For DLSAANEKNLLLQNQVDELEYKFR, the protein stability index amounted to 4.14. On to DLSAANEKNLLLQNQVDELELKFR, for which the protein stability index was 3.74.

DLSAANEKNLLLQNQVDELEMKFR: the protein stability index is 3.97. Turning to DLSAANEKNLLLQNQVDELEGKFR, the protein stability index amounted to 4.49. Same read-out and setting: as for DLSAANEKNLLLQNQVDELEWKFR, the figure is 3.63; as for DLSAANEKNLLLQNQVDELEHKFR, 4.22; as for DLSAANEKNLLLQNQVDELEKKFR, 3.93. As for DLSAANEKNLLLQNQVDELEFKFR, the protein stability index is 3.57.

With DLSAANEKNLLLQNQVDELERKFW, the protein stability index came to 3.52.

On to DLSAANEKNLLLQNQVDELERKFD, for which the protein stability index was 4.86. Still for that read-out and setting: as for DLSAANEKNLLLQNQVDELERKFC, the figure is 4.36; as for DLSAANEKNLLLQNQVDELERKFF, 3.62. Take DLSAANEKNLLLQNQVDELERKFS: the protein stability index came out at 4.25. On to DLSAANEKNLLLQNQVDELERKFL, for which the protein stability index was determined as 3.78. For the variant DLSAANEKNLLLQNQYDELERKFR, the protein stability index was found to be 3.6. With DLSAANEKNLLLQNQRDELERKFR, the protein stability index was determined as 4.17. Regarding DLSAANEKNLLLQNQEDELERKFR, the protein stability index came to 4.72. As to DLSAANEKNLLLQNQHDELERKFR, the protein stability index was 4.08.

For the variant DLSAANEKNLLLQNQWDELERKFR, the protein stability index is 3.55. In the case of DLSAANEKNLLLQNQTDELERKFR, the protein stability index stood at 3.66. On the same count and under the same terms, as for DLSAANEKNLLLQNQFDELERKFR, the figure is 3.38. For DLSAANEKNLLLQNQPDELERKFR, the protein stability index came to 4.09. Still for that read-out and setting: the same measure for DLSAANEKNLLLQNQGDELERKFR: 3.69; for DLSACNEKNLLLQNQVDELERKFR: 4.42; for DLSAQNEKNLLLQNQVDELERKFR: 3.9. The same measure, in the same setting: as for DLSAYNEKNLLLQNQVDELERKFR, the figure is 3.87. For DLSAHNEKNLLLQNQVDELERKFR, the protein stability index turned out to be 4.16. Same read-out and setting: as for DLSAANNKNLLLQNQVDELERKFR, the figure is 3.01; as for DLSAANFKNLLLQNQVDELERKFR, 2.88. Consider DLSAANQKNLLLQNQVDELERKFR, for which the protein stability index was determined as 3.63.

Consider DLSAANDKNLLLQNQVDELERKFR, for which the protein stability index was found to be 4.73.

In the case of DLSAANSKNLLLQNQVDELERKFR, the protein stability index was 3.74. Still for that read-out and setting: as for DLSAANEKNLLLQNQVDEDERKFR, the figure is 5.16. Still for that read-out and setting: as for DLSAANEKNLLLQNQVDECERKFR, the figure is 4.16; as for DLSAANEKNLLLQNQVDETERKFR, 4.34; as for DLSAANEKNLLLQNQVDEVERKFR, 4.31.

Turning to DLSAANEKNLLLQNQVDEPERKFR, the protein stability index was 3.78. As for DLSAANEKNLLLQNQVDEHERKFR, the protein stability index amounted to 4.12. With TLSAANEKNLLLQNQVDELERKFR, the protein stability index is 3.83. Still for that read-out and setting: the same measure for HLSAANEKNLLLQNQVDELERKFR: 4.42. Consider NLSAANEKNLLLQNQVDELERKFR, for which the protein stability index turned out to be 4.4. The same measure, in the same setting: the same measure for YLSAANEKNLLLQNQVDELERKFR: 4.19; for WLSAANEKNLLLQNQVDELERKFR: 3.75. Take CLSAANEKNLLLQNQVDELERKFR: the protein stability index amounted to 3.73. The same measure, in the same setting: as for GLSAANEKNLLLQNQVDELERKFR, the figure is 4.55; as for DLSAANEKNLLLGNQVDELERKFR, 4.11. The same measure, in the same setting: as for DLSAANEKNLLLLNQVDELERKFR, the figure is 3.96; as for DLSAANEKNLLLINQVDELERKFR, 3.6; as for DLSAANEKNLLLMNQVDELERKFR, 3.71. On to DLSAANEKNLLLYNQVDELERKFR, for which the protein stability index was determined as 3.42. Still for that read-out and setting: as for DLSAANEKNLLLFNQVDELERKFR, the figure is 3.44. On the same count and under the same terms, the same measure for DLSAANEKNLLLRNQVDELERKFR: 3.74; for DLSAANEKNLLLCNQVDELERKFR: 4.03.

Consider DLSAANEKNLLLHNQVDELERKFR, for which the protein stability index turned out to be 3.66. With DLSAANEKNLLLKNQVDELERKFR, the protein stability index was 4.32. Turning to DLSAANEKNLLLNNQVDELERKFR, the protein stability index was 3.68. Same read-out and setting: the same measure for DLSAANEKNLLLQNQVRELERKFR: 2.97; for DLSAANEKNLLLQNQVQELERKFR: 3.66.

Turning to DLSAANEKNLLLQNQVNELERKFR, the protein stability index was determined as 3.52. Turning to DLSAANEKNLLLQNQVEELERKFR, the protein stability index amounted to 4.39. Turning to DLSAANEKNLLLQNQVYELERKFR, the protein stability index was 3.23.

In another data set the parent is B2. The data set is described as above. Particulars: c terminus: a fixed tail appended.
Regarding EQIAERKRKMVSWEASSLGLVTMA, the protein stability index came out at 3.11. Regarding EQIAERKRKMVSWEASSLGLVTEA, the protein stability index stood at 3.96. As to EQIAERKRKMVSWEASSLGLVTWA, the protein stability index came out at 2.08. On the same count and under the same terms, the same measure for EQIAERKRKMVSWEASSLGLVTRA: 2.63. Take EQIAERKRKMVSWEASSLGLVTKA: the protein stability index turned out to be 3.27. Consider EQIAERKRKMVSWEASSLGLVTYA, for which the protein stability index was determined as 2.28. Same read-out and setting: as for EQIAERKRKMVSWEASSLGLVTNA, the figure is 2.31; as for EQIAERKRKMVSWEASSLGLVTFA, 1.58. Consider EQIAERKRKMVSWEASSLGLVTTA, for which the protein stability index was determined as 2.31. As for EQIAERKRKMVSWEASSLGLVTQA, the protein stability index came out at 2.31. Same read-out and setting: as for EQIAERKRKMVSWEASSLGLVTDA, the figure is 3.98; as for EQIAERKRKMVSWEASSLGLVTSA, 2.68. The same measure, in the same setting: as for EQIAERKRKMVSWEASSLGLVTPA, the figure is 3.41. EQIAERKRKMVSWEASSLGLVTCA: the protein stability index came out at 3.12. Still for that read-out and setting: the same measure for EQIAERKRKMVSWEASSLGLVTIA: 3.23; for EQIAERKRKMVSWEASSLGLVWAA: 1.79; for EQIAERKRKMVSWEASSLGLVSAA: 2.92.

As to EQIAERKRKMVSWEASSLGLVYAA, the protein stability index was found to be 2.57. Same read-out and setting: the same measure for EQIAERKRKMVSWEASSLGLVQAA: 3.73. On to EQIAERKRKMVSWEASSLGLVNAA, for which the protein stability index was 3.21. The same measure, in the same setting: the same measure for EQIAERKRKMVSWEASSLGLVVAA: 3.58; for EQIAERKRKMVSWEASSLGLVTAN: 3.25. With EQIAERKRKMVSWEASSLGLVTAQ, the protein stability index came out at 3.39. Take EQIAERKRKMVSWEASSLGLVTAE: the protein stability index worked out at 4.38. On to EQIAERKRKMVSWEASSLGLVTAV, for which the protein stability index is 3.04. Still for that read-out and setting: the same measure for EQIAERKRKMVSWEASSLGLVTAC: 2.39; for EQIAERKRKMVSWEASSLGLVTAF: 2.29; for EQIAERKRKMVSWEASSLGLVTAH: 3.17. Still for that read-out and setting: the same measure for EQIAERKRKMVSWEASSLGLVTAK: 2.4.

Take EQIAERKRKMVSWEASSLGLVTAS: the protein stability index is 3.57. For the variant EQIAERKRKMVSWEASSLGLVTAY, the protein stability index was 2.1. Take EQIAERKRKMVSWEASSLGLVTAD: the protein stability index worked out at 4.11.
